# Results: publication PMC4333415, “Structural insight into operator dre-sites recognition and effector binding in the GntR/HutC transcription regulator NagR” (Nucleic Acids Research, 2015)
# B1: NagR (full-length, wild-type) from Bacillus subtilis (natural protein, UniProt O34817 1-243, looked up)
# chain: MNINKQSPIPIYYQIMEQLKTQIKNGELQPDMPLPSEREYAEQFGISRMTVRQALSNLVNEGLLYRLKGRGTFVSKPKMEQALQGLTSFTEDMKSRGMTPGSRLIDYQLIDSTEELAAILGCGHPSSIHKITRVRLANDIPMAIESSHIPFELAGELNESHFQSSIYDHIERYNSIPISRAKQELEPSAATTEEANILGIQKGAPVLLIKRTTYLQNGTAFEHAKSVYRGDRYTFVHYMDRLS
# notes: NagR (formerly YvoA), GntR/HutC family transcription repressor of Bacillus subtilis, full length; The nagR gene stood in a pET15b vector; also called YvoA; full-length NagR
# B2: 19mer palindromic dsDNA (dsDNA)
# DNA 1: CAGTGGTCTAGACCACTGG
# DNA 2: CAGTGGTCTAGACCACTGG
# B3: 26mer control dsDNA (derived from nagA gene) (dsDNA)
# DNA 1: GCAGAGAGTCTTCTTATTAAAGACAT
# DNA 2: ATGTCTTTAATAAGAAGACTCTCTGC
# B4: 26mer control dsDNA (random design) (dsDNA)
# DNA 1: AATCATTTATGGCATAGGCAACAAGT
# DNA 2: ACTTGTTGCCTATGCCATAAATGCTT
# B5: 15mer palindromic dsDNA (shifted motif) (dsDNA)
# DNA 1: GACCACATGTGGTCT
# DNA 2: GACCACATGTGGTCT
# B6: 26mer native nagAB dsDNA (dsDNA)
# DNA 1: GCTCAGCTGGTCTAGATCACTAGTCT
# DNA 2: AGACTAGTGATCTAGACCAGCTGAGC
# B7: 26mer palindromic dsDNA (dsDNA)
# DNA 1: GCTCAGGTGGTCTAGACCACTAGTCT
# DNA 2: AGACTAGTGGTCTAGACCACCTGAGC
# B8: 15mer palindromic dsDNA (dsDNA)
# DNA 1: GTGGTCTAGACCACT
# DNA 2: GTGGTCTAGACCACT
# Columns and labels:
# [1] = molecular target: the molecule itself; assay: crystal structure; full-length NagR co-crystallised with 10 mM GlcN-6-P or GlcNAc-6-P; sitting drop, 292 K; isomorphous crystals, space group R32:H; one homodimer in the asymmetric unit
# NagR (YvoA) [2] = molecular target: T1, NagR (YvoA) (Bacillus subtilis, UniProt O34817 1-243); assay: X-ray crystallography; effector-free; 2.9 A; SPR: HBS-EP pH 7.4, 25 C, biotinylated DNA on SA chip; DNA for EMSA/SEC annealed in 20 mM Tris-HCl pH 7.5, 150 mM NaCl; crystal 4WWC: 0.1 M Bis-Tris pH 6.5, 25% PEG 3500, 292 K; conditions: protein: recombinant; tags: pET15b template; chain copies: 2; 3' overhang 1 nt (G) on each strand; self-complementary, 2 copies
# T1 sequence: B1 chain
# NagR (YvoA) [3] = molecular target: T1, NagR (YvoA); assay: SPR; 1:1 steady state; SPR: HBS-EP pH 7.4, 25 C, biotinylated DNA on SA chip; DNA for EMSA/SEC annealed in 20 mM Tris-HCl pH 7.5, 150 mM NaCl; crystal 4WWC: 0.1 M Bis-Tris pH 6.5, 25% PEG 3500, 292 K; conditions: protein: recombinant, tags: pET15b template, chain copies: 2, label: 5'-biotin on strand 1, blunt
# NagR-DBD [4] = molecular target: T2, NagR-DBD (Bacillus subtilis, UniProt O34817 1-75); assay: SPR; SPR: HBS-EP pH 7.4, 25 C, biotinylated DNA on SA chip; DNA for EMSA/SEC annealed in 20 mM Tris-HCl pH 7.5, 150 mM NaCl; crystal 4WWC: 0.1 M Bis-Tris pH 6.5, 25% PEG 3500, 292 K; conditions: protein: recombinant; tags: N-terminal His6 with thrombin site (pET15b); chain copies: 2; label: 5'-biotin on strand 1; blunt; one T:C mismatch as printed at position 3 of strand 1 (possible misprint)
# T2 sequence: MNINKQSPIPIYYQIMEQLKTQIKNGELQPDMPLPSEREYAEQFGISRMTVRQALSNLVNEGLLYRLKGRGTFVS
# NagR-DBD [5] = molecular target: T2, NagR-DBD; assay: EMSA; 2 uM DNA; higher oligomers by bridging of fragments; SPR: HBS-EP pH 7.4, 25 C, biotinylated DNA on SA chip; DNA for EMSA/SEC annealed in 20 mM Tris-HCl pH 7.5, 150 mM NaCl; crystal 4WWC: 0.1 M Bis-Tris pH 6.5, 25% PEG 3500, 292 K; conditions: protein: recombinant; tags: N-terminal His6 with thrombin site (pET15b); chain copies: 2; 3' overhang 1 nt (T) on each strand; self-complementary, 2 copies
# NagR (YvoA) [6] = molecular target: T1, NagR (YvoA); assay: SPR; kinetic 1:1 fit; SPR: HBS-EP pH 7.4, 25 C, biotinylated DNA on SA chip; DNA for EMSA/SEC annealed in 20 mM Tris-HCl pH 7.5, 150 mM NaCl; crystal 4WWC: 0.1 M Bis-Tris pH 6.5, 25% PEG 3500, 292 K; conditions: protein: recombinant; tags: pET15b template; chain copies: 2; label: 5'-biotin on strand 1; blunt
# NagR-DBD [7] = molecular target: T2, NagR-DBD; assay: SPR; 1:1 steady state; SPR: HBS-EP pH 7.4, 25 C, biotinylated DNA on SA chip; DNA for EMSA/SEC annealed in 20 mM Tris-HCl pH 7.5, 150 mM NaCl; crystal 4WWC: 0.1 M Bis-Tris pH 6.5, 25% PEG 3500, 292 K; conditions: protein: recombinant; tags: N-terminal His6 with thrombin site (pET15b); chain copies: 2; label: 5'-biotin on strand 1; blunt
# NagR-DBD [8] = molecular target: T2, NagR-DBD; assay: SPR; KD1 of two-step model, steady state; SPR: HBS-EP pH 7.4, 25 C, biotinylated DNA on SA chip; DNA for EMSA/SEC annealed in 20 mM Tris-HCl pH 7.5, 150 mM NaCl; crystal 4WWC: 0.1 M Bis-Tris pH 6.5, 25% PEG 3500, 292 K; conditions: protein: recombinant; tags: N-terminal His6 with thrombin site (pET15b); chain copies: 2; label: 5'-biotin on strand 1; blunt
# NagR (YvoA) [9] = molecular target: T1, NagR (YvoA); assay: SEC; 3 uM DNA; SPR: HBS-EP pH 7.4, 25 C, biotinylated DNA on SA chip; DNA for EMSA/SEC annealed in 20 mM Tris-HCl pH 7.5, 150 mM NaCl; crystal 4WWC: 0.1 M Bis-Tris pH 6.5, 25% PEG 3500, 292 K; conditions: protein: recombinant; tags: pET15b template; chain copies: 2; 3' overhang 1 nt (T) on each strand; self-complementary, 2 copies
# NagR-DBD [10] = molecular target: T2, NagR-DBD; assay: as above; conditions: protein: recombinant; tags: N-terminal His6 with thrombin site (pET15b); chain copies: 2; 3' overhang 1 nt (T) on each strand; self-complementary, 2 copies
binder,measurement,setting,value
B1,stoichiometry N,[1],2
B2,binding result,NagR (YvoA) [2],binds
B3,Kd,NagR (YvoA) [3],127 ± 4.2 nM
B4,binding result,NagR-DBD [4],no binding
same,Kd,NagR (YvoA) [3]; one T:C mismatch as printed at position 3 of strand 1 (possible misprint),306 ± 6.3 nM
B5,binding result,NagR-DBD [5],binds
B6,Kd,NagR (YvoA) [6],0.0192 ± 0.0151 nM
same,Kd,NagR-DBD [7],122 ± 7.6 nM
B7,Kd,NagR (YvoA) [6],0.0279 ± 0.0067 nM
same,Kd,NagR-DBD [8],14.5 ± 3.3 nM
B8,binding result,NagR (YvoA) [9],binds
same,binding result,NagR-DBD [10],binds
